Tests used:
Assay in all cases: Kinase Profiling Assay
Assay type in all cases: biochemical
Details in all cases: 100 μM
KDR(h) = KDR(h) (Homo sapiens, UniProt P35968)
eEF-2K(h) = eEF-2K(h) (Homo sapiens, UniProt O00418)
ASK1(h) = biological target: T1, ASK1(h) (Homo sapiens, UniProt Q99683)
T1 sequence (Q99683 1-1374): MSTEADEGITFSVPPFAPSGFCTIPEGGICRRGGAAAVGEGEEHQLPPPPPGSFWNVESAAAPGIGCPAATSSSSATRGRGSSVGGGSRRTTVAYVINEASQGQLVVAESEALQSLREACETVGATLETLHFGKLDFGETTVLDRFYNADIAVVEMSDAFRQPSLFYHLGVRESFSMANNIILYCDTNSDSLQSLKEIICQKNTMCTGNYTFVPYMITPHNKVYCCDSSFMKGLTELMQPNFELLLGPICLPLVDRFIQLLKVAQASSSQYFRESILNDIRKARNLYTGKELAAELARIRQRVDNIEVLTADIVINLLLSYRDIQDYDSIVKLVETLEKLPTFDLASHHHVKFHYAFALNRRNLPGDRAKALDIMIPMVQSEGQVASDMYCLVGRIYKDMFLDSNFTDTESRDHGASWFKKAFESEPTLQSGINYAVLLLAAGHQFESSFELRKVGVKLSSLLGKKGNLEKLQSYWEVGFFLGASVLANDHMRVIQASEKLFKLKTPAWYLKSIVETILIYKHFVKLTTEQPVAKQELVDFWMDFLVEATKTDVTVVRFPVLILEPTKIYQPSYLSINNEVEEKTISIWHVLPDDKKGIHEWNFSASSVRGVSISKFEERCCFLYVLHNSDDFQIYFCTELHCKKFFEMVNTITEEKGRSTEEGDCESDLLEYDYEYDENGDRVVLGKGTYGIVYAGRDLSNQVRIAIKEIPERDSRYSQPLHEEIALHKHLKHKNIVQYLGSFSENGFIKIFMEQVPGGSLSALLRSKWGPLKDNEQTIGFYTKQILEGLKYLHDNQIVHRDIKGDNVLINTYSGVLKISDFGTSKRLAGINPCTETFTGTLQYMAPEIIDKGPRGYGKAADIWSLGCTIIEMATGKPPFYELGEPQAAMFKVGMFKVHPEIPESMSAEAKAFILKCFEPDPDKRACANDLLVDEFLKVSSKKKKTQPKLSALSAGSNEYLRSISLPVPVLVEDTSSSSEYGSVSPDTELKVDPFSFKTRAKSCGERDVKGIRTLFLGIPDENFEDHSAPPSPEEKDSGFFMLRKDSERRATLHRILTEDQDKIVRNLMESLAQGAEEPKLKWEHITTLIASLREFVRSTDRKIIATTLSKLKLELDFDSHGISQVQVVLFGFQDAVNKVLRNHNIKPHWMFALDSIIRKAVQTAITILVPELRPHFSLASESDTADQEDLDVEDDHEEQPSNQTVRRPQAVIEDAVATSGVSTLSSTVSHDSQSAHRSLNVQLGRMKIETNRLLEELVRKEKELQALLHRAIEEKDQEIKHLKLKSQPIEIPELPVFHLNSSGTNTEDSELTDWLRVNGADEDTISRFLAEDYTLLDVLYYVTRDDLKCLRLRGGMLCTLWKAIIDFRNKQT

FGFR1(h) = FGFR1(h) (Homo sapiens, UniProt P11362)
FGFR1(h), sequence (P11362 22-822): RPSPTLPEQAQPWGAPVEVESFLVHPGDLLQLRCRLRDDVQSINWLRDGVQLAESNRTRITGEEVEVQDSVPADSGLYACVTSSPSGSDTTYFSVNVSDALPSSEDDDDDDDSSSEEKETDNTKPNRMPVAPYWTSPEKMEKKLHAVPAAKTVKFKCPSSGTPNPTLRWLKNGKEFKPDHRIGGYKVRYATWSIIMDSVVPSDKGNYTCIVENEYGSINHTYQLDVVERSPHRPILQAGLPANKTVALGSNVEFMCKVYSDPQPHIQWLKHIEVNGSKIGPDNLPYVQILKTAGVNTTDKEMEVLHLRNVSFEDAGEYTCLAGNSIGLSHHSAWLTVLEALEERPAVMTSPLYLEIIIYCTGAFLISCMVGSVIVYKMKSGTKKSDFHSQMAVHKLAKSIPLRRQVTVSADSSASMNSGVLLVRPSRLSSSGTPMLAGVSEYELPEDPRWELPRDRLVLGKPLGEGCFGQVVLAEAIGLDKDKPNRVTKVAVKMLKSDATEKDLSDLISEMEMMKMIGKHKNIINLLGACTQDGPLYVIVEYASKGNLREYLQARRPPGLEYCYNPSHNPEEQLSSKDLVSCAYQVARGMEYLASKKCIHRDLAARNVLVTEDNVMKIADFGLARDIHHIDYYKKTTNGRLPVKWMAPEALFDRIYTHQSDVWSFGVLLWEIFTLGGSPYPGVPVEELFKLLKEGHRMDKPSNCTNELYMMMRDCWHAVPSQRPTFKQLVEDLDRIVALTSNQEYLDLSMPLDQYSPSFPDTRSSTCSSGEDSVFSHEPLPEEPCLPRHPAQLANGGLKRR

PAK5(h) = PAK5(h) (Homo sapiens, UniProt Q9P286)
ZIPK(h) = ZIPK(h) (Homo sapiens, UniProt O43293)
ZIPK(h), sequence (O43293 whole entry): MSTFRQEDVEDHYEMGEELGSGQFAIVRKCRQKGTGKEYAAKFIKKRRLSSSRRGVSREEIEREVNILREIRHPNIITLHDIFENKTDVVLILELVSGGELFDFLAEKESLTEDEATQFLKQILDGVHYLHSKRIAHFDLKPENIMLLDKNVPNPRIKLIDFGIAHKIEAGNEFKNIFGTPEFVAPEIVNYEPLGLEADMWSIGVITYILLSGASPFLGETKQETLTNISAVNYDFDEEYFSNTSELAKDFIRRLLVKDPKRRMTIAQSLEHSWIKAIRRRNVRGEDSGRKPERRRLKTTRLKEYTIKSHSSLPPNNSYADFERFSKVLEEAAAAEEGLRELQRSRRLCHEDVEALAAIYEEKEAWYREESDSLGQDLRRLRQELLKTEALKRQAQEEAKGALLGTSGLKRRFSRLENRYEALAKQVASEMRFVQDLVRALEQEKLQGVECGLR

MLK1(h) = MLK1(h) (Homo sapiens, UniProt P80192)
MLK1(h), sequence (P80192 whole entry): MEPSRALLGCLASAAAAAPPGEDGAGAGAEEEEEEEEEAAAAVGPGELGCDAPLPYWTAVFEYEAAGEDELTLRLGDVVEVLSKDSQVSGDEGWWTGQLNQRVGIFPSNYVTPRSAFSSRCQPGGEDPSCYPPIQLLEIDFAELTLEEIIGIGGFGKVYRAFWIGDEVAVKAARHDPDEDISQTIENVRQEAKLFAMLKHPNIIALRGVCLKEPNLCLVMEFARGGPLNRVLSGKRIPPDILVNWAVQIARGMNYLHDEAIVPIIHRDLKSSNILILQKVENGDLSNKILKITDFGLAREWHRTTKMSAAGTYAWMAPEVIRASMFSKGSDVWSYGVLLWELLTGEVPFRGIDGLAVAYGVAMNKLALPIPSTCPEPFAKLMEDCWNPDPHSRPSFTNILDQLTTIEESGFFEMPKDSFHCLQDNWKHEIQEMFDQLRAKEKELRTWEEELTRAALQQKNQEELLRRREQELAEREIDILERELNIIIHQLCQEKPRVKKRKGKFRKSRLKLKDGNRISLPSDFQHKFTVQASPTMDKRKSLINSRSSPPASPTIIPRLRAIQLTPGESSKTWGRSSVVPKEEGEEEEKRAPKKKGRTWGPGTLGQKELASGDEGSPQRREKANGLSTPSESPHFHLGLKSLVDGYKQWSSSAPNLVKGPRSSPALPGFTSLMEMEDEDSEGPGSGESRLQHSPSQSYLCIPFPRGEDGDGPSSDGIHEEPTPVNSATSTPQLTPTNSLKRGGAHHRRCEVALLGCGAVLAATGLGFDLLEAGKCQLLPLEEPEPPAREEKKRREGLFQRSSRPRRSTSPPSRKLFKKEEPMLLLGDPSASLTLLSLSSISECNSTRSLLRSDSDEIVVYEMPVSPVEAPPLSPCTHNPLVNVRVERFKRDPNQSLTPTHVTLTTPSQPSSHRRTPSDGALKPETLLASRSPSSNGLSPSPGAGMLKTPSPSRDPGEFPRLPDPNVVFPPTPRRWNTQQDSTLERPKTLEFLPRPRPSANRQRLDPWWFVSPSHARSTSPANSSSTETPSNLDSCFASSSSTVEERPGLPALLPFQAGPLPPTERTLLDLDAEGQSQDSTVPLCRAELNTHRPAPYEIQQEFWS

EphA8(h) = biological target: T2, EphA8(h) (Homo sapiens, UniProt P29322)
T2 sequence (P29322 28-1005): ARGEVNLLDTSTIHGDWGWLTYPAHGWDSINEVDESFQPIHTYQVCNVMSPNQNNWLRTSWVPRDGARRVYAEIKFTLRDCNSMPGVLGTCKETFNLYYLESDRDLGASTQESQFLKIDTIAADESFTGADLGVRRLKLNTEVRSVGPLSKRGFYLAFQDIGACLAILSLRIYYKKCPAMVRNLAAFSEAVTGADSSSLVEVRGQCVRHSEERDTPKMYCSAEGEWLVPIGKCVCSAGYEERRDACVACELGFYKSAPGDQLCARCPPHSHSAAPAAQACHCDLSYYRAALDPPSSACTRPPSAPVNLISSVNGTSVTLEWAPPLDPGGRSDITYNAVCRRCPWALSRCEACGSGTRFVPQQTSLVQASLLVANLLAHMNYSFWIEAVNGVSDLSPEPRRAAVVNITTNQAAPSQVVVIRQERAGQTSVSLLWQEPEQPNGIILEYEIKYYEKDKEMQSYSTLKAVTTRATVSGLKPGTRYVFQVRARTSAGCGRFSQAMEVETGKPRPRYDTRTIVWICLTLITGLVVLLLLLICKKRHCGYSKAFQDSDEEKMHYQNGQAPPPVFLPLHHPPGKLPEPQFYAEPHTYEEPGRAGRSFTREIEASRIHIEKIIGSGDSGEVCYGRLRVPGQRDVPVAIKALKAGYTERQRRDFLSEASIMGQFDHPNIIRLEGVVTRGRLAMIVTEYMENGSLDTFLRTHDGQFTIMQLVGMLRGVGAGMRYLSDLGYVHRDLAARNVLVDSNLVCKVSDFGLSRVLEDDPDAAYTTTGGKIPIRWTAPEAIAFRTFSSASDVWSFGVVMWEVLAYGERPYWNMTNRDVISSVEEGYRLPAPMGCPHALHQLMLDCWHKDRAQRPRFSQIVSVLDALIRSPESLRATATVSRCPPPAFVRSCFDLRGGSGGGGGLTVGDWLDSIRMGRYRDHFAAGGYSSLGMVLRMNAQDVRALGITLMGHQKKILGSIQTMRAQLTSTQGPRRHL

SAPK2a(h) = SAPK2a(h) (Homo sapiens, UniProt Q16539)
SAPK2a(h), sequence (Q16539 whole entry): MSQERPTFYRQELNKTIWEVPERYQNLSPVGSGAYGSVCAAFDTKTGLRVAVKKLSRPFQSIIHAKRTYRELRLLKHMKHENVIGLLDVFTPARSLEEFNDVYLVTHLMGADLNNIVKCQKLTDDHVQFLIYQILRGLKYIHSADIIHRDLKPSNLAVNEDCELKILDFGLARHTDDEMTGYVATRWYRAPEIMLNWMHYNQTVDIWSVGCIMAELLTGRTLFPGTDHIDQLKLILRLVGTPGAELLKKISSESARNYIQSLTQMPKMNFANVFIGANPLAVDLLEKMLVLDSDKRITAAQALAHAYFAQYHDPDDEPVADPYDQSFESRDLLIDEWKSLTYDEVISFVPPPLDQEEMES

PDGFRα(V561D)(h) = PDGFRα(V561D)(h) (Homo sapiens, UniProt P16234, V561D)
PKCδ(h) = PKCδ(h) (Homo sapiens, UniProt Q05655)
PKCη(h) = PKCη(h) (Homo sapiens, UniProt P24723)
PKCη(h), sequence (P24723 whole entry): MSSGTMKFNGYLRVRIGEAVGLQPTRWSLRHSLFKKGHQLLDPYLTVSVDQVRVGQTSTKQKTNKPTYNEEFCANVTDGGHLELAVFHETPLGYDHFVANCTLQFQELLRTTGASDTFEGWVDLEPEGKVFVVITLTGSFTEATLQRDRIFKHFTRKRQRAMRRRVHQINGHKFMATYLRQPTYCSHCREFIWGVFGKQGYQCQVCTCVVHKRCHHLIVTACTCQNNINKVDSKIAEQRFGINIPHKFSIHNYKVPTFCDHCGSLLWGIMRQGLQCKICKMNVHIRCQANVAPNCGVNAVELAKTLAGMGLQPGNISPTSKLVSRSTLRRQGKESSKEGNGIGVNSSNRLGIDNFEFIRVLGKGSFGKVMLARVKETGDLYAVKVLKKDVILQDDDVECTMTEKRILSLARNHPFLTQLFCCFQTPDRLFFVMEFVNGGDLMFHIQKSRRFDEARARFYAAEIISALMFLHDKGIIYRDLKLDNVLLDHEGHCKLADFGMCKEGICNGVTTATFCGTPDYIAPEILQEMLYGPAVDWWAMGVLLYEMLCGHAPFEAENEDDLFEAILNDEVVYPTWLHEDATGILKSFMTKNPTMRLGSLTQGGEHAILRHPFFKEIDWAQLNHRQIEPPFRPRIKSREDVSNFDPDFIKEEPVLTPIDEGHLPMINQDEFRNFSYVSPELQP

KDR(h), sequence (P35968 20-1356): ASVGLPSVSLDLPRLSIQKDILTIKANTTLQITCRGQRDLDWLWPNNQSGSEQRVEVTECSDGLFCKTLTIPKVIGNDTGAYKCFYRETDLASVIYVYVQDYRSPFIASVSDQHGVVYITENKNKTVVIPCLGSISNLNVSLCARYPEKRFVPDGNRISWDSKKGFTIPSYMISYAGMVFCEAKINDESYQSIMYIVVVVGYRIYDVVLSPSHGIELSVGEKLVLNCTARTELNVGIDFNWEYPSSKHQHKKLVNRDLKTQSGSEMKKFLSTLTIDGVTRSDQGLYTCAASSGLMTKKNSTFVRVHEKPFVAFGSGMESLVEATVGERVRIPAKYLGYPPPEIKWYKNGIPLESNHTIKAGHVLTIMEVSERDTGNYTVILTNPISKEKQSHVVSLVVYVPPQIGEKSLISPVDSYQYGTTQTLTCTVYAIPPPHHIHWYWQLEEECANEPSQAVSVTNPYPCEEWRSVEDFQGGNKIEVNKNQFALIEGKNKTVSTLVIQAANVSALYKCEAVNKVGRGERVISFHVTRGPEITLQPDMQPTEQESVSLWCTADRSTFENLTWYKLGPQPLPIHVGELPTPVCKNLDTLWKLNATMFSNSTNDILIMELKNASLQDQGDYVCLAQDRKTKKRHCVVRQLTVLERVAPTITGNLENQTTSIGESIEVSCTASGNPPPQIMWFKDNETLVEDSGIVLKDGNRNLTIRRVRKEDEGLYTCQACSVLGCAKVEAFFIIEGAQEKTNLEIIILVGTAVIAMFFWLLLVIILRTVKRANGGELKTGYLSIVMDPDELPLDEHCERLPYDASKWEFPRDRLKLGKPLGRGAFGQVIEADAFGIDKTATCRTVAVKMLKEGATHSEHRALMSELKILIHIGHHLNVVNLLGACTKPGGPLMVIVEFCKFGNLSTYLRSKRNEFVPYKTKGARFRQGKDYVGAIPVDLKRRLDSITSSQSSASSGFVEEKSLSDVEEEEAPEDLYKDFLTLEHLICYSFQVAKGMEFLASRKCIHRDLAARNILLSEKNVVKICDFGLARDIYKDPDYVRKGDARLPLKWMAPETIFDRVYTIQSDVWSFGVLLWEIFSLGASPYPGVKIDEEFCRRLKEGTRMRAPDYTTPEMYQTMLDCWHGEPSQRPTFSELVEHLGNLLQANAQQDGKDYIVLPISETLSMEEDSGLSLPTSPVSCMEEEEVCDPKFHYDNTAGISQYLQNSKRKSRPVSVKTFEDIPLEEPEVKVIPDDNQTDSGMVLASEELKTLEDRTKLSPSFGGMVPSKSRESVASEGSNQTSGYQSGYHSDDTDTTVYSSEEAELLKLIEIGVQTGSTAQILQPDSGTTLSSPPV

FAKLAARLYRKALARQLGVAA [MMI-0300]
% activity (KDR(h)): 101%
% activity (eEF-2K(h)): 91%
% activity (ASK1(h)): 80%
% activity (FGFR1(h)): 55%
% activity (PAK5(h)): 110%
% activity (ZIPK(h)): 28%
% activity (MLK1(h)): 40%
% activity (EphA8(h)): 93%
% activity (SAPK2a(h)): 90%
% activity (PDGFRα(V561D)(h)): 82%
% activity (PKCδ(h)): 101%

KAFAKLAARLYRKALARQLGVAA [MMI-0400]
% activity (KDR(h)): 94%
% activity (eEF-2K(h)): 43%
% activity (ASK1(h)): 69%
% activity (FGFR1(h)): 59%
% activity (ZIPK(h)): 13%
% activity (MLK1(h)): 33%
% activity (EphA8(h)): 146%
% activity (SAPK2a(h)): 85%
% activity (PDGFRα(V561D)(h)): 100%
% activity (PKCδ(h)): 90%
% activity (PKCη(h)): 98%

HRRIKAWLKKIKALARQLGVAA [MMI-0500]
% activity (KDR(h)): 15%
% activity (eEF-2K(h)): 43%
% activity (ASK1(h)): −4%
% activity (FGFR1(h)): 18%
% activity (PAK5(h)): 125%
% activity (ZIPK(h)): 1%
% activity (MLK1(h)): 43%
% activity (EphA8(h)): 337%
% activity (SAPK2a(h)): 52%
% activity (PDGFRα(V561D)(h)): 146%
% activity (PKCδ(h)): 61%
% activity (PKCη(h)): 45%

YARAAARQARAKALNRQLGVA [MMI-0200]
% activity (KDR(h)): 110%
% activity (ASK1(h)): 101%
% activity (FGFR1(h)): 97%
% activity (PAK5(h)): 100%
% activity (ZIPK(h)): 67%
% activity (MLK1(h)): 84%
% activity (EphA8(h)): 133%
% activity (PKCδ(h)): 101%
% activity (PKCη(h)): 101%
